In PMC9039736, “Identifying novel SMYD3 interactors on the trail of cancer hallmarks” (Computational and Structural Biotechnology Journal, 2022):

B1: HIS-SMYD3-C-term(236–428) (domain or fragment, human, UniProt Q9H7B4 236-428, looked up)
chain: TICYLDMLMTSEERRKQLRDQYCFECDCFRCQTQDKDADMLTGDEQVWKEVQESLKKIEELKAHWKWEQVLAMCQAIISSNSERLPDINIYQLKVLDCAMDACINLGLLEEALFYGTRTMEPYRIFFPGSHPVRGVQVMKVGKLQLHQGMFPQAMKNLRLAFDIMRVTHGREHSLIEDLILLLEECDANIRAS
notes: SMYD3, human, residues 236-428, comprises the CT domain; source: recombinant human protein
B2: HIS-SMYD3-FL (natural protein, human, UniProt Q9H7B4 1-428, looked up)
chain: MEPLKVEKFATAKRGNGLRAVTPLRPGELLFRSDPLAYTVCKGSRGVVCDRCLLGKEKLMRCSQCRVAKYCSAKCQKKAWPDHKRECKCLKSCKPRYPPDSVRLLGRVVFKLMDGAPSESEKLYSFYDLESNINKLTEDKKEGLRQLVMTFQHFMREEIQDASQLPPAFDLFEAFAKVICNSFTICNAEMQEVGVGLYPSISLLNHSCDPNCSIVFNGPHLLLRAVRDIEVGEELTICYLDMLMTSEERRKQLRDQYCFECDCFRCQTQDKDADMLTGDEQVWKEVQESLKKIEELKAHWKWEQVLAMCQAIISSNSERLPDINIYQLKVLDCAMDACINLGLLEEALFYGTRTMEPYRIFFPGSHPVRGVQVMKVGKLQLHQGMFPQAMKNLRLAFDIMRVTHGREHSLIEDLILLLEECDANIRAS
notes: SMYD3, human, full length (constructs count to residue 428); also called HIS-SMYD3-FL (full length); source: recombinant human protein
B3: HIS-SMYD3-N-term(1–235) (domain or fragment, human, UniProt Q9H7B4 1-235, looked up)
chain: MEPLKVEKFATAKRGNGLRAVTPLRPGELLFRSDPLAYTVCKGSRGVVCDRCLLGKEKLMRCSQCRVAKYCSAKCQKKAWPDHKRECKCLKSCKPRYPPDSVRLLGRVVFKLMDGAPSESEKLYSFYDLESNINKLTEDKKEGLRQLVMTFQHFMREEIQDASQLPPAFDLFEAFAKVICNSFTICNAEMQEVGVGLYPSISLLNHSCDPNCSIVFNGPHLLLRAVRDIEVGEEL
notes: SMYD3, human, residues 1-235, comprises the SET domain; source: recombinant human protein

The binders below were run against T1, GST-BRCA2(1338–1781) (human, UniProt P51587 1338-1781) (assay: pull-down; 200 ng HIS-SMYD3 construct with 500 ng GST-BRCA2(1338-1781), 1 h at 4 °C; precipitated by Dynabeads HIS-Tag Isolation and Pulldown; washed in buffer A (20 mM Tris-HCl pH 8, 150 mM KCl, 5 mM MgCl2, 0.2 mM EDTA, 10% glycerol, 0.1% NP-40, 1 mM DTT); immunoblot anti-GST and anti-HIS). Settings: both partners purified.
T1 construct: one of nine GST fusion proteins spanning the entire coding region of BRCA2; source: recombinant GST fusion protein
T1 sequence (P51587 1338-1781): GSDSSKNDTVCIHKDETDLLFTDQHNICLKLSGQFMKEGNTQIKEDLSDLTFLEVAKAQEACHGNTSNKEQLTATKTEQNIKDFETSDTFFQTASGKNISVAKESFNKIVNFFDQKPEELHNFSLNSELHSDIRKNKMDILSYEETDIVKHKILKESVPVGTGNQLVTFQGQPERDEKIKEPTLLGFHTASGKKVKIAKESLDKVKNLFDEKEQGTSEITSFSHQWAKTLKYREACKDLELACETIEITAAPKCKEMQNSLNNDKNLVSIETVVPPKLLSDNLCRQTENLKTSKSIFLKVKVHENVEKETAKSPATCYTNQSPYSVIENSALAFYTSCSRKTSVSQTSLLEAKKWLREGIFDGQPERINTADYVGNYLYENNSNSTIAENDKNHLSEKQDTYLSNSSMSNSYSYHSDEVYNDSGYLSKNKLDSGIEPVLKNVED

binding result | Binder
binds | B1
binds | B2
binds | B3
